Assays:
[1] = molecular target: T1, GST-Ras2(HV)CCaaX, P01120
T1 chain: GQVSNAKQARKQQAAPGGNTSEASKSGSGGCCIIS

[2] = molecular target: T2, GST-CCaaX, P01120
T2 chain: CCIIS

[3] = molecular target: T3, GST-Ras2CCaaX, P01120
T3 chain: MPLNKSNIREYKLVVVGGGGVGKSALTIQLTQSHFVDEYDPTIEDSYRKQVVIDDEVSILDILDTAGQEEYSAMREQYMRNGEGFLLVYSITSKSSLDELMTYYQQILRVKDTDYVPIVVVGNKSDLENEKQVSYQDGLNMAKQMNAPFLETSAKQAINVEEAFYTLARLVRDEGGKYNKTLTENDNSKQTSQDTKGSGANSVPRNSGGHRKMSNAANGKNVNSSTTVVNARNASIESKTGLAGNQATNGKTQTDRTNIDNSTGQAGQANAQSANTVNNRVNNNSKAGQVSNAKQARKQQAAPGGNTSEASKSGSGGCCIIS

[4] = molecular target: H-Ras (N-terminal His6-tagged fusion), P01112
[5] = molecular target: Myristoylated Gi1

Chain of H-Ras (N-terminal His6-tagged fusion), P01112 (P01112 whole entry, looked up, the tested form may be a part): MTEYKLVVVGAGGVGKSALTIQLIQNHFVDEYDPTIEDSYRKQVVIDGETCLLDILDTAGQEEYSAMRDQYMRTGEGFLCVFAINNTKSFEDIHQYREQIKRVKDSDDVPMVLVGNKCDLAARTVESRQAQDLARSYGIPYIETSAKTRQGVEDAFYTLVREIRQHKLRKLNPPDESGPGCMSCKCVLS

B1: Erf2p/Erf4p complex (GST-Erf4p/FLAG-Erf2p on GSH beads) (protein)
chain 1: MALVSRRSTRSESTSITKEEHTGEGSLTKLFFRWLVTLEGDQDINDGKGYISLPNVSNYIFFLGGRFRTVKGAKPLWLGVLLAIVCPMVLFSIFEAHKLWHTQNGYKVLVIFFYYFWVITLASFIRTATSDPGVLPRNIHLSQLRNNYQIPQEYYNLITLPTHSSISKDITIKYCPSCRIWRPPRSSHCSTCNVCVMVHDHHCIWVNNCIGKRNYRFFLIFLLGAILSSVILLTNCAIHIARESGGPRDCPVAILLLCYAGLTLWYPAILFTYHIFMAGNQQTTREFLKGIGSKKNPVFHRVVKEENIYNKGSFLKNMGHLMLEPRGPSFVSARKPHEAGDWRFMDLSPAHSFEKIQKI
chain 2: MCDSHQKEEDNANTSERALFFNYHEFSYSFYEDLGSEDAKPTEHDEDHKLCITHFPNVYAARGSAEFQVTRVVRVPRRFDESRSSLETPQFSTQLPGSEPAAIVGDDGTSFVRCGRYDIGDHVFGCSSVSPLSEYLSAAELAEVVHRVNGFLLREEGEVFGWRNLSGLLLDMLTGGLWSWVLGPLLSRPVFQESLALEQYVAQLNSPGGLLHERGVRLVLPRRSGCLSLDFVVPRPK
acceleration of the spontaneous rate of palmitoylation [1]: ~160-fold | palmitate incorporated into the Ras2p substrate (in vitro PAT assay, [3H]palmitoyl-CoA) [1]: 0.14 pmol/min | palmitate transferred (PAT assay) [1]: 2720 pmol palmitate transferred/min/\u00b5mol substrate | in vitro palmitoylation relative to GST-(HV)CCaaX [2]: reduced 10-fold compared with GST-(HV)CCaaX | in vitro palmitoylation (PAT assay) [3]: palmitoylated GST(HV)CCIIS to levels similar to full-length GST-Ras2CCIIS | palmitate transferred (PAT assay) [4]: 40 vs 2720 pmol palmitate transferred/min/\u00b5mol substrate | palmitoylation level relative to Ras2p [4]: levels much lower (5%) than the proposed natural substrate, Ras2p | palmitate transferred (PAT assay) [5]: 55 vs 2720 pmol palmitate transferred/min/\u00b5mol substrate | palmitoylation level relative to yeast Ras2p [5]: ~5% that of yeast Ras2p
